Laboratory results from patent publication US20230110188A1 (ARGENX IIP, published 2023).

Experiments:
[1] = target: T1, Human MuSK (R&D Systems, cat. 10189-MK, histidine tag) (human, UniProt O15146 24-495); experiment: SPR (Biacore), MuSK-coated chip presaturated with 500 nM 3F6c (competitor)
T1 construct: Bought protein; also called human monomeric MuSK-6xhis; not shown: histidine tag (6xhis)
T1 sequence: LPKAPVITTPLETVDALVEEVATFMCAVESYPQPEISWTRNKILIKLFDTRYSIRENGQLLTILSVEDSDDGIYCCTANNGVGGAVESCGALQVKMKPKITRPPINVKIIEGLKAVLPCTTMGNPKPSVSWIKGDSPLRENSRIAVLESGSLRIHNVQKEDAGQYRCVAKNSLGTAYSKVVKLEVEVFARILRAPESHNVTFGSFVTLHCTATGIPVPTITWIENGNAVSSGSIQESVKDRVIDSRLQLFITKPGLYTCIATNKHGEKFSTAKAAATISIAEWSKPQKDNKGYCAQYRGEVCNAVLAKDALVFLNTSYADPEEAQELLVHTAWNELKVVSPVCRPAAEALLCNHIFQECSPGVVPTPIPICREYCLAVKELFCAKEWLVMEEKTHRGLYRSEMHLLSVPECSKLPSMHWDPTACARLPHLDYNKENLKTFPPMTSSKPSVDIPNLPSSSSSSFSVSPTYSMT
Description: (§1) A chip was coated with ˜5000 RU of human MuSK (Lot nr DHUCO 11908A, batch nr 1089_MK). In a first experiment the saturating concentration of the pre-leads was determined. This is the concentration where the amplitude of a specific pre-lead doesn't increase anymore when additional pre-lead is injected on the immobilized MuSK.

[2] = target: T1, Human MuSK (R&D Systems, cat. 10189-MK, …); experiment: SPR (Biacore), MuSK-coated chip presaturated with 500 nM 3D9b (competitor)
Description: as §1

[3] = target: T1, Human MuSK (R&D Systems, cat. 10189-MK, …); experiment: SPR (Biacore), MuSK-coated chip presaturated with 500 nM 3D10a (competitor)
Description: as §1

[4] = target: T1, Human MuSK (R&D Systems, cat. 10189-MK, …); experiment: SPR (Biacore), MuSK-coated chip, antibody alone (run of first antibody 3D9b)
Description: as §1

[5] = target: T2, human monomeric MuSK FLAG streptavidin (in house produced, batch 27-6-2019) (human, UniProt O15146 24-495); experiment: epitope binning ELISA (coated anti-MuSK Fab, MuSK, IgG, anti-Fc HRP); competitor: 3D10a
T2 construct: also called full length MuSK; not shown: FLAG and streptavidin tags
T2 sequence: T1 sequence
Description: (§2) For epitope binning—An ELISA plate was coated at 1 μg/ml of the anti-MuSK Fabs and incubated overnight at 4° C. Next, the plate was wash with PBS followed by blocking with 1% casein in PBS for one hour. After washing the plate, 1 μg/ml of human monomeric MuSK (in house produced, batch 27-6-2019) was incubated for one hour at RT. The plate was washed and anti-MuSK antibodies at 0.3-10 μg/ml were added to the plate and incubated for one hour at RT. After washing the plate, detection antibody (goat anti-human Fc HRP (Jackson Immunoresearch cat. 109-035-098)) was added at 5000 fold dilution in PBS 0.1% casein. The plate was incubated for one hour at RT and washed with PBS-T. TMB was added and the reaction was stopped by adding H2504. […]
(§3) For the epitope binning ELISA, a plate was coated with anti-MuSK Fab and human monomeric MuSK was added after blocking the plate. Next the different antibodies were added and allowed to bind.

[6] = target: T2, human monomeric MuSK FLAG streptavidin …; experiment: epitope binning ELISA (coated anti-MuSK Fab, MuSK, IgG, anti-Fc HRP); competitor: 4D3
Description: as §2, §3

[7] = target: T1, Human MuSK (R&D Systems, cat. 10189-MK, …); experiment: SPR (Biacore), MuSK-coated chip, antibody alone (run of first antibody 3F6c)
Description: as §1

[8] = target: T2, human monomeric MuSK FLAG streptavidin …; experiment: epitope binning ELISA (coated anti-MuSK Fab, MuSK, IgG, anti-Fc HRP); competitor: 3B5wt
Description: as §2, §3

[9] = target: T1, Human MuSK (R&D Systems, cat. 10189-MK, …); experiment: SPR (Biacore), MuSK-coated chip, antibody alone (run of first antibody 3D10a)
Description: as §1

[10] = target: T2, human monomeric MuSK FLAG streptavidin …; experiment: epitope binning ELISA (coated anti-MuSK Fab, MuSK, IgG, anti-Fc HRP); competitor: 3F6c
Description: as §2, §3

[11] = target: T1, Human MuSK (R&D Systems, cat. 10189-MK, …); experiment: SPR (Biacore), MuSK-coated chip, antibody alone (run of first antibody 4D3)
Description: as §1

[12] = target: T1, Human MuSK (R&D Systems, cat. 10189-MK, …); experiment: SPR (Biacore), MuSK-coated chip presaturated with 3F6c
[13] = target: T1, Human MuSK (R&D Systems, cat. 10189-MK, …); experiment: SPR (Biacore), MuSK-coated chip presaturated with 500 nM 4D3 (competitor)
Description: as §1

[14] = target: T2, human monomeric MuSK FLAG streptavidin …; experiment: epitope binning ELISA (coated anti-MuSK Fab, MuSK, IgG, anti-Fc HRP); competitor: 3D9b
Description: as §2, §3

amplitude of prelead after presaturating MuSK (RU) [1]: 2230 RU
extra amplitude (%) [1]: 397%
normalized extra amplitude (%) [1]: 395%
amplitude of prelead after presaturating MuSK (RU) [2]: 2150 RU
extra amplitude (%) [2]: 539%
normalized extra amplitude (%) [2]: 538%
amplitude of prelead after presaturating MuSK (RU) [3]: 2260 RU
extra amplitude (%) [3]: 344%
normalized extra amplitude (%) [3]: 342%
amplitude of prelead without presaturating MuSK (RU) [4]: 399 RU
OD 450 nm [5]: 1.88 OD
OD 450 nm [6]: 1.96 OD
amplitude of prelead without presaturating MuSK (RU) [7]: 562 RU
OD 450 nm [8]: 0.048 OD
amplitude of prelead without presaturating MuSK (RU) [9]: 658 RU
OD 450 nm [10]: 2.03 OD
amplitude of prelead without presaturating MuSK (RU) [11]: 151 RU
fold of binding signal against amplitude on non-saturated MuSK [12]: ≥ 3 fold
amplitude of prelead after presaturating MuSK (RU) [13]: 141 RU
extra amplitude (%) [13]: 93%
normalized extra amplitude (%) [13]: 88.1%
OD 450 nm [14]: 1.99 OD
B1: 3B5 (antibody, V domains shown)
VH: QVQLVQSGAVVAKPGASVQVSCKTSGYTFTGQYLHWVRQAPGQGLEWIGWINPSSGVTKFAEKFEGRATMTRDTSITTAYIDLRSLRSDDTATYYCATLSLGVYYVGMVAWGQGTLVTVSS
VL: ELTQPPSVSVSPGQTATITCSGDGLAQQHVYWFQQRPGQAPLLIIYKDIERPSGIPERFSGSSSGTTAMLTISGVQAEDEADYYCQSGDRTATSVLFGGGTKMTVLG
notes: also called 3B5wt
